Experimental data published in patent US20180327501A1 (CARSGEN THERAPEUTICS, published 2018).

Key:
[1] = molecular target: T1, antigen EGFRvIII (purchased protein) (UniProt P00533 25-645, limits assumed); assay: concentration gradient ELISA, EGFRvIII coated 200 ng/well, anti-His-tag detection, non-linear fit
T1 construct: also called EGFRvIII antigen; biotin-labeled antigen EGFRvIII
Description: Binding activity of an antibody to antigen EGFRvIII was determined by concentration gradient ELISA assay. For this purpose, the antigen EGFRvIII was diluted with 0.1 M NaHCO₃ (pH 9.6) coating solution and each well was coated with 200 ng at 50 μl/well overnight at 4° C. and blocked with PBST containing 2% (w/v) BSA for 2 hours at room temperature. The plate was then rinsed for three times with PBST. […] After incubation for 2 hours at 37° C., plate was rinsed for three times with PBST followed by adding 100 μl/well of a 1:2000 dilution of mouse anti-His-tag antibody (available from Santa cruz) for 1 hour at 37° C. To test the bound antibody, HRP-labeled goat anti-mouse antibody (purchased from Santa Cruz) was diluted in PBST at a 1:15,000 dilution and 100 μl per well was added and incubated at 37° C. for 1 hour. […] The chromogenic reaction was stopped with 50 μl of 2 M H₂SO₄ per well and extinction value was measured at 450 nm using enzyme-linked immunoassay (Bio-Rad). The absorbance values obtained were evaluated using Sigma Plot software and the binding strength of an antibody was calculated. For this purpose, the extinction value measured in each case was plotted against the corresponding antibody concentration and the resulting curve was fitted using the following non-linear regression.

[2] = molecular target: T2, EGFRvIII on U87-EGFRvIII cells (human, UniProt P00533 25-1210); assay: FACS on U87MG-EGFRvIII cells, method of Example 9; PBS control 1
T2 construct: whole, on cells; EGFRvIII is a deletion variant of it; also called U87MG-EGFRvIII; mutant human EGFR

[3] = molecular target: EGFR on the cell surface (human) (UniProt P00533); assay: FACS on CAL 27 cells, method of Example 9; PBS control 3.11
[4] = molecular target: T2, EGFRvIII on U87-EGFRvIII cells; assay: FACS on U87-EGFRvIII cells, 20 µg/ml
Description: 2) Cells were digested with 10 mM EDTA and cells were collected by centrifugation at 200 g for 5 min. Cells were resuspended in 1% phosphate buffered saline (NBS PBS) containing calf serum at a concentration of 1×10⁶ to 1×10⁷/mL, and added in a flow tube in an amount of 100 μl/tube.
And PBS was used as a negative control. The final concentration of antibody was 20 μg/ml, 100 μl was added to each tube and placed in an ice bath for 45 minutes.

[5] = molecular target: T3, BSA (bovine serum albumin) (bovine, UniProt P02769 25-607); assay: single phage ELISA, 100 ng/well coated protein
T3 construct: Negative control protein in the phage ELISA
T3 sequence (P02769 25-607 limits assumed): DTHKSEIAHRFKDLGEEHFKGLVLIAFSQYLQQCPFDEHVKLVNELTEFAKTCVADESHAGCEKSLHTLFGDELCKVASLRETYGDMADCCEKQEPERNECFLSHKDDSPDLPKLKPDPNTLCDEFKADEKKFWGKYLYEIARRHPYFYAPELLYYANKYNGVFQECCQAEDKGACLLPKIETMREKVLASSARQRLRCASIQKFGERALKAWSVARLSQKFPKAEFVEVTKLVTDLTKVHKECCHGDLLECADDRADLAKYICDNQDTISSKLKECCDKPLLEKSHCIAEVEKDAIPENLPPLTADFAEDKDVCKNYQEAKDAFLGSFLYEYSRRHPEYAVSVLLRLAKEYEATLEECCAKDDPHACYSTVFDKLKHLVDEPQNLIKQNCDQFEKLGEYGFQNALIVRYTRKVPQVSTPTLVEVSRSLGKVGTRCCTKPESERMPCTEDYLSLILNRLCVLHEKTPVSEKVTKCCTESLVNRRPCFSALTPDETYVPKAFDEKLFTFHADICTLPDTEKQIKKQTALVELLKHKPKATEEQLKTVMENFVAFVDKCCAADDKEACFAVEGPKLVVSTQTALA
Description: (§1) Each well was blocked with PBST containing 2% BSA (w/v). The wells were then washed with PBST for three times. Then, each phage solution prepared above was added to each well of the plate at 100 μl/well. After incubation for 2 hours at 37° C., it was washed for three times with PBST. To detect bound phage, anti-M13 antibody […] conjugate (purchased from GE Healthcare) was diluted at 1:5000 in PBST and 100 μl was added to each well. After incubating at 37° C. for 1 hour, the wells were rinsed for three times with PBST and then rinsed for three times with PBS. Finally, 50 μl of TMB substrate was added into the wells and developed for 10 minutes at room temperature, followed by addition of 50 μl of 2M H₂SO₄ per well to stop the color reaction. Extinction values were measured at 450 nm with an enzyme-linked immunosorbent (Bio-Rad).
(§2) All of the altered amino acid positions include S31 in the light chain CDR1 region, V89, A92, Q93, F94 and Y96 in the light chain CDR3 region, 5182 in the heavy chain CDR2 region, L222, R224, G225, F226 and R227 in the heavy chain CDR3 region.

N1N2 (control protein) = molecular target: T4, N1N2 (control protein) (M13 phage, UniProt P69168 19-235, limits assumed); assay: single phage ELISA, 100 ng/well coated protein
T4 construct: domain: N1N2 domain; Negative control protein in the phage ELISA
T4 sequence (P69168 19-235 limits assumed): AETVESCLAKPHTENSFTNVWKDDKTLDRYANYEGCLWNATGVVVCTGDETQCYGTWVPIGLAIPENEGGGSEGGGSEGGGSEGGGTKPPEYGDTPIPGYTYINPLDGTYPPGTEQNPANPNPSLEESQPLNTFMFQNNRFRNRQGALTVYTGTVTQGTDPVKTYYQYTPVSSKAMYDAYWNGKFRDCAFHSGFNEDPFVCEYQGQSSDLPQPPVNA
Description: as §1, §2

Binder	mean fluorescence intensity (MFI) [2]	mean fluorescence intensity (MFI) [3]	further results
antibody 7B3, single chain antibody with carboxy-terminal 6xhistidine, produced in E. coli (scFv) scFv: DIQMTQSPSSLSASVGDRVTITCHASQDINSNIGWLQQKPGKAFKGLIYHGKNLEDGVPSRFSGSGSGTDFTLTISSLQPEDFATYYCVQYAQFPYTFGQGTKVEIKRGGGGSGGGGSGGGGSDVQLVESGGGLVQPGGSLRLSCAVSGYSITSDYAWNWIRQAPGKGLEWLGYISYRGRTSYNPSLKSRISITRDNSKNTFFLQLNSLRAEDTAVYYCARLGRGFRYWGQGTLVTVSSHHHHHH			Kd [1]: ~22.4 nM
antibody Y022, single chain antibody with carboxy-terminal 6xhistidine, produced in E. coli (scFv) scFv: DIQMTQSPSSLSASVGDRVTITCHASQDINVNIGWLQQKPGKAFKGLIYHGKNLEDGVPSRFSGSGSGTDFTLTISSLQPEDFATYYCNQYENIPLTFGQGTKVEIKRGGGGSGGGGSGGGGSDVQLVESGGGLVQPGGSLRLSCAVSGYSITSDYAWNWIRQAPGKGLEWLGYISYRGRTQYNPSLKSRISITRDNSKNTFFLQLNSLRAEDTAVYYCARMGKNWDYWGQGTLVTVSSHHHHHH			Kd [1]: ~2.7 nM
M14/CD3 single chain bifunctional antibody (bispecific antibody, part only; not given: linker, anti-CD3 scFv, His tag, not shown: another chain or arm of the molecule) DIQMTQSPSSLSASVGDRVTITCHASQDINSNIGWLQQKPGKAFKGLIYHGKNLEDGVPSRFSGSGSGTDFTLTISSLQPEDFATYYCNQYENNPITFGQGTKVEIKRGGGGSGGGGSGGGGSDVQLVESGGGLVQPGGSLRLSCAVSGYSITSDYAWNWIRQAPGKGLEWLGYISYRGRTNYNPSLKSRISITRDNSKNTFFLQLNSLRAEDTAVYYCARLGRGFRYWGQGTLVTVSS	36.5	28.4	
S22/CD3 single chain bifunctional antibody (bispecific antibody, part only; not given: linker, anti-CD3 scFv, His tag, not shown: another chain or arm of the molecule) DIQMTQSPSSLSASVGDRVTITCHASQDINVNIGWLQQKPGKAFKGLIYHGTNLEDGVPSRFSGSGSGTDFTLTISSLQPEDFATYYCNQYENNPLTFGQGTKVEIKRGGGGSGGGGSGGGGSDVQLVESGGGLVQPGGSLRLSCAVSGYSITSDYAWNWIRQAPGKGLEWLGYISYRGRTRYNPSLKSRISITRDNSKNTFFLQLNSLRAEDTAVYYCARLGRGFRYWGQGTLVTVSS	31.3	24.6	
S8/CD3 single chain bifunctional antibody (bispecific antibody, part only; not given: linker, anti-CD3 scFv, His tag, not shown: another chain or arm of the molecule) DIQMTQSPSSLSASVGDRVTITCHASQDINVNIGWLQQKPGKSFKGLIYHGKNLEDGVPSRFSGSGSGTDFTLTISSLQPEDFATYYCNQYENNPITFGQGTKVEIKRGGGGSGGGGSGGGGSDVQLVESGGGLVQPGGSLRLSCAVSGYSITSDYAWNWIRQAPGKGLEWLGYISYRGRTSYNPSLKSRISITRDNSKNTFFLQLNSLRAEDTAVYYCARLGRGFRYWGQGTLVTVSS	38.5	30	
M26/CD3 single chain bifunctional antibody (bispecific antibody, part only; not given: linker, anti-CD3 scFv, His tag, not shown: another chain or arm of the molecule) DIQMTQSPSSLSASVGDRVTITCHASQDINVNIGWLQQKPGKAFKGLIYHGKNLEDGVPSRFSGSGSGTDFTLTISSLQPEDFATYYCNQYENIPLTFGQGTKVEIKRGGGGSGGGGSGGGGSDVQLVESGGGLVQPGGSLRLSCAVSGYSITSDYAWNWIRQAPGKGLEWLGYISYRGRTQYNPSLKSRISITRDNSKNTFFLQLNSLRAEDTAVYYCARLGRGFRYWGQGTLVTVSS	41.4	24.6	
S29/CD3 single chain bifunctional antibody (bispecific antibody, part only; not given: linker, anti-CD3 scFv, His tag, not shown: another chain or arm of the molecule) DIQMTQSPSSLSASVGDRVTITCHASQDINVNIGWLQQKPGKAFKGLIYHGKNLEDGVPSRFSGSGSGTDFTLTISSLQPEDFATYYCNQYENFPLTFGQGTKVEIKRGGGGSGGGGSGGGGSDVQLVESGGGLVQPGGSLRLSCAVSGYSITSDYAWNWIRQAPGKGLEWLGYISYRGRTRYNPSLKSRISITRDNSKNTFFLQLNSLRAEDTAVYYCARLGRGFRYWGQGTLVTVSS	34.6	25.7	
S17/CD3 single chain bifunctional antibody (bispecific antibody, part only; not given: linker, anti-CD3 scFv, His tag, not shown: another chain or arm of the molecule) DIQMTQSPSSLSASVGDRVTITCHASQDINTNIGWLQQKPGKAFKGLIYHGKNLEDGVPSRFSGSGSGTDFTLTISSLQPEDFATYYCNQYENNPLTFGQGTKVEIKRGGGGSGGGGSGGGGSDVQLVESGGGLVQPGGSLRLSCAVSGYSITSDYAWNWIRQAPGKGLEWLGYISYRGRTQYNPSLKSRISITRDNSKNTFFLQLNSLRAEDTAVYYCARLGRGFRYWGQGTLVTVSS	31.6	25	
S7/CD3 single chain bifunctional antibody (bispecific antibody, part only; not given: linker, anti-CD3 scFv, His tag, not shown: another chain or arm of the molecule) DIQMTQSPSSLSASVGDRVTITCHASQDINVNIGWLQQKPGKAFKGLIYHGTNLEDGVPSRFSGSGSGTDFTLTISSLQPEDFATYYCNQYENNPITFGQGTKVEIKRGGGGSGGGGSGGGGSDVQLVESGGGLVQPGGSLRLSCAVSGYSITSDYAWNWIRQAPGKGLEWLGYISYRGRTSYNPSLKSRISITRDNSKNTFFLQLNSLRAEDTAVYYCARLGRGFRYWGQGTLVTVSS	42.2	27.9	
M15/CD3 single chain bifunctional antibody (bispecific antibody, part only; not given: linker, anti-CD3 scFv, His tag, not shown: another chain or arm of the molecule) DIQMTQSPSSLSASVGDRVTITCHASQDINVNIGWLQQKPGKAFKGLIYHGKNLEDGVPSRFSGSGSGTDFTLTISSLQPEDFATYYCNQYENNPITFGQGTKVEIKRGGGGSGGGGSGGGGSDVQLVESGGGLVQPGGSLRLSCAVSGYSITSDYAWNWIRQAPGKGLEWLGYISYRGRTSYNPSLKSRISITRDNSKNTFFLQLNSLRAEDTAVYYCARLGRGFRYWGQGTLVTVSS	37.9	29.4	
S23/CD3 single chain bifunctional antibody (bispecific antibody, part only; not given: linker, anti-CD3 scFv, His tag, not shown: another chain or arm of the molecule) DIQMTQSPSSLSASVGDRVTITCHASQDINVNIGWLQQKPGKSFKGLIYHGKNLEDGVPSRFSGSGSGTDFTLTISSLQPEDFATYYCNQYENNPLTFGQGTKVEIKRGGGGSGGGGSGGGGSDVQLVESGGGLVQPGGSLRLSCAVSGYSITSDYAWNWIRQAPGKGLEWLGYISYRGRTRYNPSLKSRISITRDNSKNTFFLQLNSLRAEDTAVYYCARLGRGFRYWGQGTLVTVSS	32.2	29.7	
M25/CD3 single chain bifunctional antibody (bispecific antibody, part only; not given: linker, anti-CD3 scFv, His tag, not shown: another chain or arm of the molecule) DIQMTQSPSSLSASVGDRVTITCHASQDINVNIGWLQQKPGKAFKGLIYHGKNLEDGVPSRFSGSGSGTDFTLTISSLQPEDFATYYCNQYENIPLTFGQGTKVEIKRGGGGSGGGGSGGGGSDVQLVESGGGLVQPGGSLRLSCAVSGYSITSDYAWNWIRQAPGKGLEWLGYISYRGRTRYNPSLKSRISITRDNSKNTFFLQLNSLRAEDTAVYYCARLGRGFRYWGQGTLVTVSS	36.5	24.1	
scFv-Y022-Fc (Fc fusion, Expressed in HEK-293F cells, protein A purified; also called single chain antibody Y022; V5-scFv-Y022-Fc; not shown: Fc fragment of human IgG1 from vector pCMV-V5-Fc, fused downstream of the multiple cloning site; limits and junction res) DIQMTQSPSSLSASVGDRVTITCHASQDINVNIGWLQQKPGKAFKGLIYHGKNLEDGVPSRFSGSGSGTDFTLTISSLQPEDFATYYCNQYENIPLTFGQGTKVEIKRGGGGSGGGGSGGGGSDVQLVESGGGLVQPGGSLRLSCAVSGYSITSDYAWNWIRQAPGKGLEWLGYISYRGRTQYNPSLKSRISITRDNSKNTFFLQLNSLRAEDTAVYYCARMGKNWDYWGQGTLVTVSS			binding result [4]: binds
single chain antibody Y022 displayed on phage (scFv, 12 mutations against 7B3; not shown: fusion to M13 phage coat protein from phagemid pCANTAB 5E (pCantab 5E-Y022)) scFv: DIQMTQSPSSLSASVGDRVTITCHASQDINVNIGWLQQKPGKAFKGLIYHGKNLEDGVPSRFSGSGSGTDFTLTISSLQPEDFATYYCNQYENIPLTFGQGTKVEIKRGGGGSGGGGSGGGGSDVQLVESGGGLVQPGGSLRLSCAVSGYSITSDYAWNWIRQAPGKGLEWLGYISYRGRTQYNPSLKSRISITRDNSKNTFFLQLNSLRAEDTAVYYCARMGKNWDYWGQGTLVTVSS			binding result [5]: no binding; binding result (N1N2 (control protein)): no binding
